From publication PMC10322906

Biological target: CXCR4-Tango
Assay: Tango (TEV-cleavage luciferase reporter of arrestin recruitment); Tango-Trio, basal: HTTL-B1 / HTTL-B2 cells transfected with GPCR-Tango constructs, with against without cumate (30 µg/mL) or cumate dose-response, no agonist; in Fig. 7 also with inverse agonists/antagonists at EC80

- fold change in constitutive β-arrestin-2 recruitment (with against without cumate): 67 fold
Substance: β-arrestin2-TEV219 (from UniProt P32121 1-409) (natural protein)
